# B1: Tyrosine-protein kinase JAK2 (Mus musculus), Q62120 (parent)
# chain: MGMACLTMTEMEATSTSPVHQNGDIPGSANSVKQIEPVLQVYLYHSLGQAEGEYLKFPSGEYVAEEICVAASKACGITPVYHNMFALMSETERIWYPPNHVFHIDESTRHDILYRIRFYFPHWYCSGSSRTYRYGVSRGAEAPLLDDFVMSYLFAQWRHDFVHGWIKVPVTHETQEECLGMAVLDMMRIAKEKDQTPLAVYNSVSYKTFLPKCVRAKIQDYHILTRKRIRYRFRRFIQQFSQCKATARNLKLKYLINLETLQSAFYTEQFEVKESARGPSGEEIFATIIITGNGGIQWSRGKHKESETLTEQDVQLYCDFPDIIDVSIKQANQECSNESRIVTVHKQDGKVLEIELSSLKEALSFVSLIDGYYRLTADAHHYLCKEVAPPAVLENIHSNCHGPISMDFAISKLKKAGNQTGLYVLRCSPKDFNKYFLTFAVERENVIEYKHCLITKNENGEYNLSGTKRNFSNLKDLLNCYQMETVRSDSIIFQFTKCCPPKPKDKSNLLVFRTNGISDVQISPTLQRHNNVNQMVFHKIRNEDLIFNESLGQGTFTKIFKGVRREVGDYGQLHKTEVLLKVLDKAHRNYSESFFEAASMMSQLSHKHLVLNYGVCVCGEENILVQEFVKFGSLDTYLKKNKNSINILWKLGVAKQLAWAMHFLEEKSLIHGNVCAKNILLIREEDRRTGNPPFIKLSDPGISITVLPKDILQERIPWVPPECIENPKNLNLATDKWSFGTTLWEICSGGDKPLSALDSQRKLQFYEDKHQLPAPKWTELANLINNCMDYEPDFRPAFRAVIRDLNSLFTPDYELLTENDMLPNMRIGALGFSGAFEDRDPTQFEERHLKFLQQLGKGNFGSVEMCRYDPLQDNTGEVVAVKKLQHSTEEHLRDFEREIEILKSLQHDNIVKYKGVCYSAGRRNLRLIMEYLPYGSLRDYLQKHKERIDHKKLLQYTSQICKGMEYLGTKRYIHRDLATRNILVENENRVKIGDFGLTKVLPQDKEYYKVKEPGESPIFWYAPESLTESKFSVASDVWSFGVVLYELFTYIEKSKSPPVEFMRMIGNDKQGQMIVFHLIELLKSNGRLPRPEGCPDEIYVIMTECWNNNVSQRPSFRDLSLRVDQIRDSIAA
# partner: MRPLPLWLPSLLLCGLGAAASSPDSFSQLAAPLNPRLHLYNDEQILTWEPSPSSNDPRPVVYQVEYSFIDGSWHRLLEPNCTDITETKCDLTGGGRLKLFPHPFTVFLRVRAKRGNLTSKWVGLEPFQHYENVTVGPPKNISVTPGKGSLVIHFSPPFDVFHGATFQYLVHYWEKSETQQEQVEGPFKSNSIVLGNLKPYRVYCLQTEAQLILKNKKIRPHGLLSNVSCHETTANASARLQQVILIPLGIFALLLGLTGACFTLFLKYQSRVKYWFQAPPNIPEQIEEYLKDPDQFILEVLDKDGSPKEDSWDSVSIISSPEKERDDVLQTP
# B2: Tyrosine-protein kinase JAK2 (Mus musculus), Q62120 (parent)
# chain: B1 chain
# partner: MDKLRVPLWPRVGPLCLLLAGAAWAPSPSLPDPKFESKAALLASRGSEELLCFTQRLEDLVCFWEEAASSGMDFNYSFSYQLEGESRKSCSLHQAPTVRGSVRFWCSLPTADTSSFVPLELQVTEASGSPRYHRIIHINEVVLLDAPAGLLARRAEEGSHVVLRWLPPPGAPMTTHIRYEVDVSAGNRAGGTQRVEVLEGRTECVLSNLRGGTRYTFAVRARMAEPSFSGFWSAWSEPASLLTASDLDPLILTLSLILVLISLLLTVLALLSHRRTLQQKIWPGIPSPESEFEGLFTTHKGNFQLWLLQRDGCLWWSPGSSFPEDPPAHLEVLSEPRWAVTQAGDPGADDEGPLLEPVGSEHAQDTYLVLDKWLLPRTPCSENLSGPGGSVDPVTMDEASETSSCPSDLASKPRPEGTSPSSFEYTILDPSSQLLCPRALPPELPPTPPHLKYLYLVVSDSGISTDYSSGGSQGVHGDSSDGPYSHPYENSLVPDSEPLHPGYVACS
# Variants of: B1
# Settings: with Ifngr2, Q63953
row,effect of a mutation on the interaction,Variant
1,decreasing interaction,Y119E
2,decreasing interaction,Y1007F

# Variants of: B2
# Settings: with epor_mouse Epor
row,effect of a mutation on the interaction,Variant
1,disrupting interaction,Y119E
2,decreasing interaction,Y1007F
